# Where no end group is shown, it is not given here.
# Legend:
# [1] = target: extra domain B of oncofetal human fibronectin (ED-B) (human) (UniProt P02751); test: SPR, ED-B immobilised on the chip, pH 7.3, 1:1 Langmuir fit
# [2] = target: human serum albumin (human) (UniProt P02768); test: SPR, HSA immobilised on the chip, pH 7.3, 1:1 Langmuir fit
# [3] = target: human serum albumin (human) (UniProt P02768); test: SPR
# [4] = target: mouse serum albumin (mouse) (UniProt P07724); test: SPR
# [5] = target: extra domain B of oncofetal human fibronectin (ED-B) (human) (UniProt P02751); test: SPR
# hFAP-Fc (human) = hFAP-Fc (human) (UniProt Q12884); test: SPR, Fc-tagged FAP captured on immobilised protein A, pH 7.3, 1:1 Langmuir fit
# Chain of hFAP-Fc (human) (Q12884 26-760 limits assumed): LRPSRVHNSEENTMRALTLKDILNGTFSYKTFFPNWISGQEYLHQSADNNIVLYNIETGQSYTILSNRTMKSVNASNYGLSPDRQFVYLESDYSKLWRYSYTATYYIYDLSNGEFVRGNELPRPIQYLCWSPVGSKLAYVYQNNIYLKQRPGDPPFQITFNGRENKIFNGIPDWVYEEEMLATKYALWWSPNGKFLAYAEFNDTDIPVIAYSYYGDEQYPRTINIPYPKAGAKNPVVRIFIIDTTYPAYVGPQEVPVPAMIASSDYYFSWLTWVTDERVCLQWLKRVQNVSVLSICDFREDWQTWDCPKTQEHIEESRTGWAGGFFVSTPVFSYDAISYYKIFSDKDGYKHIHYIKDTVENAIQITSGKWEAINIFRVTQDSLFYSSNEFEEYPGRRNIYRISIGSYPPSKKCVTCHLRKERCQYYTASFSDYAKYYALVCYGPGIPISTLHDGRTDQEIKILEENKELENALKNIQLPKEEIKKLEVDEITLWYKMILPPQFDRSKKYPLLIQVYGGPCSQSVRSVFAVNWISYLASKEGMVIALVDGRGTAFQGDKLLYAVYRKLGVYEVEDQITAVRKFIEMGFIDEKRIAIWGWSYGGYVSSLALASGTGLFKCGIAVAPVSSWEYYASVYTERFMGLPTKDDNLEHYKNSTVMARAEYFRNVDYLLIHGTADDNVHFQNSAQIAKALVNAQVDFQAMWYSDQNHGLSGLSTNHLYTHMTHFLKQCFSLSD
# Chain of human serum albumin (human) (P02768 25-609 limits assumed): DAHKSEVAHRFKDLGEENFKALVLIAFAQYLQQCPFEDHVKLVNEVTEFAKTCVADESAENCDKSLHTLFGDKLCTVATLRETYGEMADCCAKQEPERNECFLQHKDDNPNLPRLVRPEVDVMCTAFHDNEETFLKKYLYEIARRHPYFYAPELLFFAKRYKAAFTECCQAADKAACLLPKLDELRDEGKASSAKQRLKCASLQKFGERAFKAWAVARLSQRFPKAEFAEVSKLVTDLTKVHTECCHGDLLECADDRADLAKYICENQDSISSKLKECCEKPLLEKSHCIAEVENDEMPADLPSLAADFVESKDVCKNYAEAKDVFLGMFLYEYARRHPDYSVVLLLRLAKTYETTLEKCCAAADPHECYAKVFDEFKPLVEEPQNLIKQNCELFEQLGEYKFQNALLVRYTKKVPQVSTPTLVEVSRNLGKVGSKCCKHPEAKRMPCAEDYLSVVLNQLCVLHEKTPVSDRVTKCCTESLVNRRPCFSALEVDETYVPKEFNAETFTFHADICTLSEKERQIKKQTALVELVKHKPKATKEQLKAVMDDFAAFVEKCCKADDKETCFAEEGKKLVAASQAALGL
# Chain of extra domain B of oncofetal human fibronectin (ED-B) (human) (P02751 1266-1356 limits assumed): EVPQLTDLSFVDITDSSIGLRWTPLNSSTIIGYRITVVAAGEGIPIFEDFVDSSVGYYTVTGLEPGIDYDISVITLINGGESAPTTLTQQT
# Chain of mouse serum albumin (mouse) (P07724 25-608 limits assumed): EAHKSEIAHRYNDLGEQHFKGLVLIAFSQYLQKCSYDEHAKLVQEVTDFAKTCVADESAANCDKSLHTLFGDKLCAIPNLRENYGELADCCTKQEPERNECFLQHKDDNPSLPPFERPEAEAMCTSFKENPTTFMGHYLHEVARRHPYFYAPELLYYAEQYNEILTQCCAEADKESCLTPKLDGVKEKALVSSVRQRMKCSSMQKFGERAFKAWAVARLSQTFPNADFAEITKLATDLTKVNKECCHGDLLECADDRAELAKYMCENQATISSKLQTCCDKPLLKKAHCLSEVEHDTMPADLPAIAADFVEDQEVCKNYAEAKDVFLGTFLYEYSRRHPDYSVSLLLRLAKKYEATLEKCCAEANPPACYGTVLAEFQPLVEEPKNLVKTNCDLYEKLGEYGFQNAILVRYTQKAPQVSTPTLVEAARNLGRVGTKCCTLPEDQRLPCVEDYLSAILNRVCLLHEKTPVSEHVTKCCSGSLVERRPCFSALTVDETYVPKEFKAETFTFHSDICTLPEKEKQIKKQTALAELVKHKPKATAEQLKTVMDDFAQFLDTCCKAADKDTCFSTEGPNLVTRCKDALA
Binder,Kd [1],Kd [2],also measured
"LAEAKVLALKELDKYGISNYYKNLINNAKTVEGVKALKEAIVAALP (designed binder, part only; not given: ED-B binding domain, linker, part only, also: DOTA coupled, site not given here, Lu loaded) [ED-B specific fusion protein 219087 DOTA Lu]",–,–,Kd [3]: 1.3 nM; Kd [4]: 1.3 nM; Kd [5]: < 1 nM
"LAEAKVLALKELDKYGISNYYKNLINNAKTIEGVKALKAAIVAA (designed binder, part only; not given: ED-B binding domain, linkers, tags, part only) [215663]",0.2 nM,2.6 nM,–
"LAEAKVLALKELDKYGISNYYKNLINNAKTIEGVKALKDQIVAA (designed binder, part only; not given: ED-B binding domain, linkers, tags, part only) [215661]",0.4 nM,3.8 nM,–
"LAEAKVLALKELDKYGISNYYKNLINNAKTIEGVEALKDAIVAA (designed binder, part only; not given: ED-B binding domain, linkers, tags, part only) [215673]",0.1 nM,3.3 nM,–
"LAEAKVLALKELDKYGISNYYKNLINNAKTIEGVKALKEAIVAA (designed binder, part only; not given: ED-B binding domain, linkers, tags, part only) [215670]",0.7 nM,3.4 nM,–
"LAEAKVLALKELDKYGISNYYKNLINNAKTIEGVEALKAQIVAA (designed binder, part only; not given: ED-B binding domain, linkers, tags, part only) [215659]",–,13.4 nM,–
"LAEAKVLALKELDKYGISNYYKNLINNAKTIEGVKALKAQILAA (designed binder, part only; not given: ED-B binding domain, linkers, tags, part only) [215665]",0.1 nM,3 nM,–
"LAEAKVLALKELDKYGISNYYKNLINNAKTIEGVKALKDEIVAA (designed binder, part only; not given: ED-B binding domain, linkers, tags, part only) [215671]",0.1 nM,7.3 nM,–
"LAEAKVLAIKELDKAGISDYYFNLINNAKTVEGVKALKAQIVAA (designed binder, part only; not given: ED-B binding domain, linkers, tags, part only) [215035]",–,2.4 nM,–
"LAEAKVLAIKELDKAGISNYYFNLINNAKTIEGVKALKAQIVAA (designed binder, part only; not given: ED-B binding domain, linkers, tags, part only) [215055]",–,1.7 nM,–
"LAEAKVLAIKELDKAGISNYYFNLINNAKTVEGVKDLKAQIVAA (designed binder, part only; not given: ED-B binding domain, linkers, tags, part only) [215052]",–,7.9 nM,–
"LAEAKVLAIKELDKAGISDYYFNLINNAKTIEGVKALKAQIVAA (designed binder, part only; not given: ED-B binding domain, linkers, tags, part only) [215039]",–,2.2 nM,–
"LAEAKVLAIKELDKAGISDYYFNLINNAKTVDGVKALKAQIVAA (designed binder, part only; not given: ED-B binding domain, linkers, tags, part only) [215037]",–,19.9 nM,–
"LAEAKVLALKELDKYGISNYYKNLINNAKTIEGVKALKAQIVAA (designed binder, part only; not given: ED-B binding domain, linkers, tags, part only) [215652]",0.4 nM,4.1 nM,–

# The next lines start with results.
Kd [1],Kd [2],Binder,also measured
0.2 nM,1.4 nM,"LAEAKVLALKELDKYGISNYYKNLINNAKTVEGVKALKEAIVAALP (designed binder, part only; not given: ED-B binding domain, linkers, tags, part only, also: fusion protein, linkers and tags not given here) [219087]",–
–,3.8 nM,"LAEAKVLALKELDKYGISNYYKNLINNAKTVEGVKALKEAIVAA (designed binder, part only; not given: FAP binding domain, linkers, tags, part only) [221191]",Kd (hFAP-Fc (human)): 3.8 nM
–,7.9 nM,"LAEAKVLALKELDKYGISNYYKNLINNAKTIEGVKALKDEIVAA (designed binder, part only; not given: FAP binding domain, linkers, tags, part only) [221215]",Kd (hFAP-Fc (human)): 8 nM
0.6 nM,1.1 nM,"LAEAKVLALKELDKYGISNYYKNLINNAKTIEGVEALKDAILAA (designed binder, part only; not given: ED-B binding domain, linkers, tags, part only) [215675]",–
0.1 nM,5 nM,"LAEAKVLALKELDKYGISNYYKNLINNAKTIEGVEALKEAIVAA (designed binder, part only; not given: ED-B binding domain, linkers, tags, part only) [215674]",–
0.1 nM,1.5 nM,"LAEAKVLALKELDKYGISNYYKNLINNAKTVEGVKALKEAIVAA (designed binder, part only; not given: ED-B binding domain, linkers, tags, part only) [217806]",–
0.1 nM,0.8 nM,"LAEAKVLALKELDKYGISNYYKNLIDKAKTIEGVEALKDAILAA (designed binder, part only; not given: ED-B binding domain, linkers, tags, part only) [215680]",–
0.3 nM,12.5 nM,"LAEAKVLAIKELDKAGISNYYFNLINNAKTVEGVKALKAQIVAA (designed binder, part only; not given: ED-B binding domain, linkers, tags, part only) [219089]",–

# Source: patent US20250388696A1
